In assay [1] the target is SMALP-Sf-ABCC2-FLAG (Sf-ABCC2 extracted from silkworm pupae membranes with styrene maleic acid and affinity purified) (Spodoptera frugiperda). Description: immuno-magnetic separation with SMALP-Sf-ABCC2 and anti-FLAG magnetic beads; colonies on LB-tet.
Assay [2] has as its target T1, Spore-Cry1Fa (Bacillus subtilis spores displaying the Bacillus thuringiensis Cry1Fa protein as a … (Bacillus thuringiensis, UniProt Q03746 1-615)).
T1 construct: vector pSB634 or pHY300PLK
T1 sequence: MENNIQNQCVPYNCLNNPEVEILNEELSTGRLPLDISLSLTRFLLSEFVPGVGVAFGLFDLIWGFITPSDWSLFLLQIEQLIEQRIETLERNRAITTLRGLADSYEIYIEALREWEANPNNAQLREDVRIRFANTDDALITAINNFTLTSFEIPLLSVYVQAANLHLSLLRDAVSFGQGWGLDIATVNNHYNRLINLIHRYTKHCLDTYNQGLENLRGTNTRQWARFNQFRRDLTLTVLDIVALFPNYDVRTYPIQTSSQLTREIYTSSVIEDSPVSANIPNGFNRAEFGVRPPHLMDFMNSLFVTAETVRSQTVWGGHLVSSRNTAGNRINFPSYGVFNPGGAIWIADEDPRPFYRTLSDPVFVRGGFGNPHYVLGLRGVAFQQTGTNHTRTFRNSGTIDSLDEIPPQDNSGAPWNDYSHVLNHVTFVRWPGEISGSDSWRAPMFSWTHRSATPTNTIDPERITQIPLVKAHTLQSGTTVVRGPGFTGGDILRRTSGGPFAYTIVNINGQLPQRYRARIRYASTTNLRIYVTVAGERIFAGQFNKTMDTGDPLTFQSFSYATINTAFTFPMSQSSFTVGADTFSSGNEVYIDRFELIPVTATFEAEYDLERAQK
Description: bright field and fluorescence microscopy of spores mixed with Sf9 cells.

The target in assay [3] is T2, Spore-Cry1Aa (Bacillus subtilis spores displaying the Bacillus thuringiensis Cry1Aa protein as a … (Bacillus thuringiensis, UniProt P0A366 1-621)).
T2 construct: vector pSB634 or pHY300PLK
As to the kind of experiment: flow cytometry of spores labelled with Bm-ABCC2, anti-FLAG mouse antibody and Alexa-labelled anti-mouse IgG, after a wash with 0.2% SDS. (Flow cytometry measures light scatter and fluorescence of single cells or particles in a stream.)

The target of assay [4] is T1, Spore-Cry1Fa (Bacillus subtilis spores …). As to the kind of experiment: microscopy of spores on Sf9 cells expressing Sf-ABCC2.
Assay [5] has the same target. As to the kind of experiment: immuno-magnetic separation with anti-FLAG magnetic beads.

The molecule “Spore-pSB634 (Bacillus subtilis spores carrying the empty vector pSB634, no Cry protein displayed)” returned a spores (colonies) pulled out by the magnetic beads from 10^6 spores (spores (colonies)) in assay [1] of 9.

B1: Sf-ABCC2-Mutant (ABCC2 from a Cry1Fa-resistant Spodoptera frugiperda strain, C-terminal FLAG tag) expressed on Sf9 cells (receptor)
chain: MDKSNKNTAANGNGGQRAGEPKERVRKKPNILSRIFVWWIFPVLITGNKRDVEEDDLIVPSKKFNSERQGEYFERYWFEEVAIAEREDRDPSLWKAMRRAYWLQYMPGAIFVLLISGLRTAQPLLFSQLLSYWSVDSEMSQQDAGLYALAMLGINFITMMCTHHNNLFVMRFSMKVKIAASSLLFRKLLRMSQVSVGDVAGGKLVNLLSNDVARFDYAFMFLHYLWVVPLQVGVVLYFVYDAAGWAPYVGLFGVIILIMPLQAGLTKLTGVVRRMTAKRTDKRIKLMSEIINGIQVIKMYAWEKPFQLVVKAARAYEMSALRKSIFIRSMFLGFMLFTERSVMFLTVLTLALTGNMISATLIYPIQQYFGIITMNVTLILPMAFASFSEMLISLERIQGFLLLDERSDIQITPKVVNGAGSKLFNNSKKEGGLETGIVLPTKYSPTEANMARPMQDEPNMADYPVQLNKVNATWADLNDNKEMTLKNISSRVRKNKLCAVIGPVGSGKTSLLQLLLRELPVTSGNLSISGTVSYASQEPWLFPATVRENILFGLEYNVAKYKEVCKVCSLLPDFKQFPYGDLSLVGERGVSLSGGQRARINLARAVYREADIYLLDDPLSAVDANVGRQLFDGCIKGYLSGKTCILVTHQIHYLKAADFIVVLNEGSVENMGSYDELMKTGTEFSMLLSDQASEGSDTDKKERPAMMRGISKMSVKSDDEEGEEKVQVLEAEERQSGSLKWDVLGRYMKSVNSWCMVVMAFLVLVITQGAATTTDYWLSFWTNQVDIQTLPEGESKNPELNTQVGLLTTGQYLIVHGSVVLAIIILTQVRILSFVVMTMRASENLHNTIYEKLIVAVMRFFDTNPSGRVLNRFSKDMGAMDELLPRSMLETVQMYLSLASVLVLNAIALPWTLIPTTVLMFIFVFLLKWYINAAQAVKRLEGTTKSPVFGMINSTISGLSTIRSSNSQDRLLNSFDDAQNLHTSAFYTFLGGSTAFGLYLDTLCLIYLGIIMSIFILGDFGELIPVGSVGLAVSQSMVLTMMLQMAAKFTADFLGQMTAVERVLEYTKLPTEENMETGPTTPPKDWPSAGEVTFSNVYLKYSPDDPPVLKDLNFAIKSGWKVGVVGRTGAGKSSLISALFRLSDITGSIKIDGLDTQGIAKKLLRSKISIIPQEPVLFSASLRYNLDPFDNYNDEDIWRALEQVELKESIPALDYKVSEGGTNFSMGQRQLVCLARAILRSNKILIMDEATANVDPQTDALIQKTIRKQFATCTVLTIAHRLNTIMDSDRVLVMDQGVAAEFDHPYILLSNPNSKFSSMVKETGDNMSRILFEVAKTKYESDSKTADYKDDDDK
notes: Expressed in Sf9 cells by baculovirus
For B1, in assay [2], the binding result is “no binding”.

B2: Bm-ABCC2 solubilized in 1% Triton X100 and affinity purified (C-terminal FLAG tag) (receptor)
chain: MNSDGRAGENSSAETRRKPHKPNILSRIFLWWMCPVLVKGNQRDTVEDDLIIPKKSFNSENQGEYLERYWLQEYEAAIKEKREPSLWTALRKAYWLGYMPGAIYLIIISVFRIIQPLVFAELLSYWSVEATITRLEASYYALALLGINFINMMCQHHNSLFVARFGLKVKVACSSLVYRKLLRMDQVALGDVSGGKLVNLLSNDVARFDYAFMFLHYLWVVPVQAAVVLYFLYISAGYAPFVGFFGVVILILPIQAGLTKLTSVVRRETAQRTDRRIKLMTEIINGIQVIKMYAWEKPFQAIVKVARNFEMIALRKSIFIRSVFLGFMLFTERSIIFITCLTFLLTGNLVTATLIYPIQQYISIIQINLTMILPLAIASLSEMLVSLERIQNFLVKDEREDVQITPKSYGDDNRLIFNNKASLGPQNEIIPKKYLATDGQLASTLTNEPVLSTDPAVCDYPIELSKVDATWSSSTDTSEMTLRNITLRIGRGKLCAIIGPVGSGKSSILQVLLKELPVCGGSLRINGRLSYACQESWLFPATVRENILFGLPYDSQKYHEVCKACSLLPDFKQFPYGDLSLVGERGVSLSGGQRARINLARAVYREADIYLLDDPLSAVDANVGRQLFDGCIKGYLRGRTCVLVTHQIHYLKAADIIVILNEGAIENVGSYDDLVNTGTEFSKLLTNQESNDNENGPEKNFLRAISKISTKSVEDPDNEKVQVEEEEKRAKGNLKFSVLYKYLSAVKSWFLVFLMVVTLVITQGCATFIDYWLSFWTNQVDEYEQSLAEGEEPSTSLDTQAGAFTLGVYLWTYGGVILILIVISHVRILTFVITTMRASSNFHDTVYKKLIITVMRFFDMNPSGRVLNRFSKDMGAMDEFLPRSLFETVQMYLTLCSILILNAIALPWTLIPTAVLLILFFVLLKWYLNAAQAVKRLEGTTKSPVLGMINSTLTGLSTIRSSNSQGRLLQMFDNAQNLHTSAFYTFVGGSTAFGLYLDALCLVYLGVILTIFLVIDFSTLIPVGSVGLAVSQSMVLTMMLQMAARFTADFLGQMTAVERVLEYTELPMEENMYDGSQLPKDWPTHGRIEFQNLFLNYSQEDPPVLKDLNFVIENGWKVGVVGRTGAGKSSMISALFRLYELQGHIRIDGIDTNIIAKTELRSKISIIPQEPILFSASVRYNLDPFDSYSDDEIWRALEQVELKEVIPALDYKVSEGGSNFSVGQRQLVCLARAVLRSNKILVMDEATANVDPQTDALIQTTIRREFASCTVITIAHRLNTIMDSDRVLVMDKGVVAEYDTPYALLSDPNSIFSSMVRETGDTMSKVLFRVAEDKHLGRNTEKDYKDDDDK
Turning to B2, the binding result in assay [3] is given as “binds”.

B3: Sf-ABCC2 (Spodoptera frugiperda ABC transporter subfamily C type 2, C-terminal FLAG tag) expressed on Sf9 cells (receptor)
chain: MDKSNKNTAANGNGGQRAGEPKKRVRKKPNILSRIFVWWIFPVLITGNKRDVEEDDLIVPSKKFNSERQGEYFERYWFEEVAIAEREDRDPSLWKAMRRAYWLQYMPGAIFVLLISGLRTAQPLLFSQLLSYWSVDSEMSQQDAGLYALAMLGINFITMMCTHHNNLFVMRFSMKVKIAASSLLFRKLLRMSQVSVGDVAGGKLVNLLSNDVARFDYAFMFLHYLWVVPLQVGVVLYFVYDAAGWAPYVGLFGVIILIMPLQAGLTKLTGVVRRMTAKRTDKRIKLMSEIINGIQVIKMYAWEKPFQLVVKAARAYEMSALRKSIFIRSMFLGFMLFTERSVMFLTVLTLALTGNMISATLIYPIQQYFGIITMNVTLILPMAFASFSEMLISLERIQGFLLLDERSDIQITPKVVNGAGSKLFNNSKKEGGLETGIVLPTKYSPTEASIARPVQDEPNMADYPVQLNKVNATWADLNDNKEMTLKNISLRVRKNKLCAVIGPVGSGKTSLLQLLLRELPVTSGNLSISGTVSYASQEPWLFPATVRENILFGLEYNVAKYKEVCKVCSLLPDFKQFPYGDLSLVGERGVSLSGGQRARINLARAVYREADIYLLDDPLSAVDANVGRQLFDGCIKGYLSGKTCILVTHQIHYLKAADFIVVLNEGSVENMGSYDELMKTGTEFSMLLSDQASEGSDTDKKERPAMMQGISKMSVKSDDEEGEEKVQVLEAEERQSGSLKWDVLGRYMKSVNSWCMVVMAFLVLVITQGAATTTDYWLSFWTNQVDGYIQTLPEGESPNPELDTQVGLLTTGQYLIVHGSVVLAIIILTQVRILSFVVMTMRASENLHNTIYEKLIVAVMRFFDTNPSGRVLNRFSKDMGAMDELLPRSMLETVQMYLSLASVLVLNAIALPWTLIPTTVLMFIFVFLLKWYINAAQAVKRLEGTTKSPVFGMINSTISGLSTIRSSNSQDRLLNSFDDAQNLHTSAFYTFLGGSTAFGLYLDTLCLIYLGIIMSIFILGDFGELIPVGSVGLAVSQSMVLTMMLQMAAKFTADFLGQMTAVERVLEYTKLPTEENMETGPTTPPKGWPSAGEVTFSNVYLKYSPDDPPVLKDLNFAIKSGWKVGVVGRTGAGKSSLISALFRLSDITGSIKIDGLDTQGIAKKLLRSKISIIPQEPVLFSASLRYNLDPFDNYNDEDIWRALEQVELKESIPALDYKVSEGGTNFSMGQRQLVCLARAILRSNKILIMDEATANVDPQTDALIQKTIRKQFANCTVLTIAHRLNTIMDSDRVLVMDQGVAAEFDHPYILLSNPNSKFSSMVKETGDNMSRILFEVAKTKYESDSKTADYKDDDDK
notes: Expressed in Sf9 cells by baculovirus together with EGFP; also called Sf9::Sf-ABCC2; Sf9 expressing Sf-ABCC2
Take B3: the binding result in assay [4] is on record as “binds”.

B4: SMALP-Sf-ABCC2-FLAG (Sf-ABCC2 extracted from silkworm pupae membranes with styrene maleic acid and affinity purified) (receptor)
chain: B3 chain
notes: also called Sf-ABCC2 in SMALP
As for B4, in assay [5], the binding result was “binds”.

The values above are taken from patent US20250059241A1 (SYNGENTA CROP PROTECTION, published 2025).
